Data as given in paper PMC7090385 (Cell Reports, 2020).
One block for each binder: values may come before it.

Experiments:
[1] = molecular target: recombinant NCS-1 (not myristoylated) (UniProt P62166 1-190, biotin (EZ-Link NHS-PEG4-biotin) where bound to the streptavidin sensor); assay: BLI
[2] = molecular target: T1, SID2p peptide (APOL1 G332-L392, WT) (human); assay: SPR
T1 peptide: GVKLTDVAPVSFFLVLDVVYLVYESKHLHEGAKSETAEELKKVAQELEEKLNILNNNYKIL

Sequence of recombinant NCS-1 (not myristoylated) (P62166 whole entry): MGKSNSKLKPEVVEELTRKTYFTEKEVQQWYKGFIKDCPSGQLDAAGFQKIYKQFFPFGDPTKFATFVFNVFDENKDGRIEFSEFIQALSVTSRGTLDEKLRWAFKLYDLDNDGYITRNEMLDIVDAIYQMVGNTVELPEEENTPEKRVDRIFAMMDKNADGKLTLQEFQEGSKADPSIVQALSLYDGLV

Kd [1]: 36.5 ± 2.6 nM
B1: recombinant APOL3 (natural protein)
chain: MDSEKKRFTEEATKYFRERVSPVHLQILLTNNEAWKRFVTAAELPRDEADALYEALKKLRTYAAIEDEYVQQKDEQFREWFLKEFPQVKRKIQESIEKLRALANGIEEVHRGCTISNVVSSSTGAASGIMSLAGLVLAPFTAGTSLALTAAGVGLGAASAVTGITTSIVEHSYTSSAEAEASRLTATSIDRLKVFKEVMRDITPNLLSLLNNYYEATQTIGSEIRAIRQARARARLPVTTWRISAGSGGQAERTIAGTTRAVSRGARILSATTSGIFLALDVVNLVYESKHLHEGAKSASAEELRRQAQELEENLMELTQIYQRLNPCHTH
modifications: biotin (EZ-Link NHS-PEG4-biotin), only where APOL3 was the bound partner (Figure 5A)

binding result [2]: binds
Binder: LTDNEAWNGFVAAAELPRNEADELRKALDNLARQMIMK [LZ1p peptide (APOL1 L88-K125)]
